Measurements reported in patent publication US20040092720A1 (US Dept. of Health and Human Services, published 2004).

molecular target: T1, recombinant human IL-6 (human, UniProt P05231 30-212, labeled with radioactive iodine); experiment: radioiodinated IL-6 on peptide array
T1 construct: Labeled probe in solution, added to wells that carry the synthetic peptides; also called IL-6 ligand; Interleukin-6

Binder	Counts/minute bound
YLRGNLAESKCYLITVTPVYADGP [Peptide E49]	1540 counts/minute
ENALGKVTSDHINFDPVYKVKPNP [Peptide E21]	1120 counts/minute
SDWSEEASGITYEDRPSKAPSFWY [Peptide E32]	1160 counts/minute
RSSFTVQDLKPFTEYVFRIRCMKE [Peptide E29]	1320 counts/minute
ISSSDENESSQNTSSTVQYSTVVH [Peptide E75]	1120 counts/minute
RMAAYTDEGGKDGPEFTFTTPKFA [Peptide E60]	1450 counts/minute
TYEDRPSKAPSFWYKIDPSHTQGY [Peptide E33]	1220 counts/minute
PFTEYVFRIRCMKEDGKGYWSDWS [Peptide E30]	1260 counts/minute
KAFPKDNMLWVEWTTPRESVKKYI [Peptide E44]	1180 counts/minute
SCTVDYSTVYFVNIEVWVEAENAL [Peptide E19]	3320 counts/minute
SSCMSSSRPSISSSDENESSQNTS [Peptide E74]	1130 counts/minute
HINFDPVYKVKPNPPHNLSVINSE [Peptide E22]	1730 counts/minute
TQGYRTVQLVWKTLPPFEANGKIL [Peptide E35]	1170 counts/minute
ETHLETNFTLKSEWATHKFADCKA [Peptide E16]	1040 counts/minute
PPRHNFNSKDQMYSDGNFTDVSVV [Peptide E68]	1230 counts/minute
NLSCIVNEGKKMRCEWDGGRETHL [Peptide E14]	1170 counts/minute
TVRNLVGKSDAAVLTIPACDFQAT [Peptide E41]	1100 counts/minute
TEGHSSGIGGSSCMSSSRPSISSS [Peptide E73]	1060 counts/minute
FQATHPVMDLKAFPKDNMLWVEWT [Peptide E43]	1300 counts/minute
KDGPEFTFTTPKFAQGEIEAIVVP [Peptide E61]	1390 counts/minute
YRTKDASTWSQIPPEDTASTRSSF [Peptide E27]	1160 counts/minute
KMRCEWDGGRETHLETNFTLKSEW [Peptide E15]	1570 counts/minute

Binder	Counts/minute bound
QQEDGTVHRTYLRGNLAESKCYLI [Peptide E48]	1080 counts/minute
SHIAQWSPHTPPRHNFNSKDQMYS [Peptide E67]	1200 counts/minute
CYLITVTPVYADGPGSPESIKAYL [Peptide E50]	1260 counts/minute
SVIILKYNIQYRTKDASTWSQIPP [Peptide E26]	2830 counts/minute
FTDIASLNIQLTCNILTFGQLEQN [Peptide E10]	3380 counts/minute
HFTIPKEQYTIINRTASSVTFTDI [Peptide E8]	1140 counts/minute
VEWTTPRESVKKYILEWCVLSDKA [Peptide E45]	1390 counts/minute
TRWKSHLQNYTVNATKLTVNLTND [Peptide E38]	3650 counts/minute
IIGNETAVNVDSSHTEYTLSSLTS [Peptide E57]	1230 counts/minute
KLTWTNPSIKSVIILKYNIQYRTK [Peptide E25]	10300 counts/minute
LEQNVYGITIISGLPPEKPKNLSC [Peptide E12]	1670 counts/minute
QLPVDVQNGFIRNYTIFYRTIIGN [Peptide E55]	4360 counts/minute
ADGPGSPESIKAYLKQAPPSKGPT [Peptide E51]	1190 counts/minute
QIPPEDTASTRSSFTVQDLKPFTE [Peptide E28]	1200 counts/minute
ISGLPPEKPKNLSCIVNEGKKMRC [Peptide E13]	1200 counts/minute
QMYSDGNFTDVSVVEIEANDKKPF [Peptide E69]	1190 counts/minute
GKNEAVLEWDQLPVDVQNGFIRNY [Peptide E54]	1310 counts/minute
GKILDYEVTLTRWKSHLQNYTVNA [Peptide E37]	1790 counts/minute
LDLFKKEKINTEGHSSGIGGSSCM [Peptide E72]	1440 counts/minute
KKPFPEDLKSLDLFKKEKINTEGH [Peptide E71]	2690 counts/minute
KGPTVRTKKVGKNEAVLEWDQLPV [Peptide E53]	1640 counts/minute
IRNYTIFYRTIIGNETAVNVDSSH [Peptide E56]	1640 counts/minute

Binder	Counts/minute bound
INSEELSSILKLTWTNPSIKSVII [Peptide E24]	1010 counts/minute
PKFAQGEIEAIVVPVCLAFLLTTL [Peptide E62]	2790 counts/minute
KPNPPHNLSVINSEELSSILKLTW [Peptide E23]	1410 counts/minute
KKYILEWCVLSDKAPCITDWQQED [Peptide E46]	1710 counts/minute
IVVPVCLAFLLTTLLGVLFCFNKR [Peptide E63]	4520 counts/minute
WKTLPPFEANGKILDYEVTLTRWK [Peptide E36]	1460 counts/minute
LTNDRYLATLTVRNLVGKSDAAVL [Peptide E40]	4800 counts/minute
AAVLTIPACDFQATHPVMDLKAFP [Peptide E42]	1120 counts/minute
FNKRDLIKKHIWPNVPDPSKSHIA [Peptide E65]	5740 counts/minute
SFWYKIDPSHTQGYRTVQLVWKTL [Peptide E34]	1140 counts/minute
IWPNVPDPSKSHIAQWSPHTPPRH [Peptide E66]	1200 counts/minute
KAYLKQAPPSKGPTVRTKKVGKNE [Peptide E52]	1820 counts/minute
VSVVEIEANDKKPFPEDLKSLDLF [Peptide E70]	1300 counts/minute
TVNATKLTVNLTNDRYLATLTVRN [Peptide E39]	4360 counts/minute
DSSHTEYTLSSLTSDTLYMVRMAA [Peptide E58]	1350 counts/minute
CMKEDGKGYWSDWSEEASGITYED [Peptide E31]	1730 counts/minute
KSEWATHKFADCKAKRDTPTSCTV [Peptide E17]	1410 counts/minute
LTTLLGVLFCFNKRDLIKKHIWPN [Peptide E64]	4500 counts/minute
FVNIEVWVEAENALGKVTSDHINF [Peptide E20]	1410 counts/minute
IINRTASSVTFTDIASLNIQLTCN [Peptide E9]	1630 counts/minute
DCKAKRDTPTSCTVDYSTVYFVNI [Peptide E18]	1550 counts/minute
